According to US20250270319A1 (Alector, published 2025):

How the values were obtained:
[1] = target: T1, human CD33 on primary human dendritic cells (human, UniProt P20138 18-364); assay: cell-based or functional assay
[2] = target: T2, recombinant human CD33 protein (Sino Biologicals) (human, UniProt P20138 18-259); assay: ELISA, plate coated with recombinant CD33
T2 construct: Bought protein; also called recombinant CD33

[3] = target: T3, recombinant cynomolgus CD33 protein (NovoProtein) (cynomolgus); assay: ELISA, plate coated with recombinant CD33
T3 construct: Bought protein; also called cyno CD33

[4] = target: T1, human CD33 on primary human dendritic …; assay: cell-based or functional assay; remark: listed apart in the source

T2 sequence (P20138 18-259 limits assumed): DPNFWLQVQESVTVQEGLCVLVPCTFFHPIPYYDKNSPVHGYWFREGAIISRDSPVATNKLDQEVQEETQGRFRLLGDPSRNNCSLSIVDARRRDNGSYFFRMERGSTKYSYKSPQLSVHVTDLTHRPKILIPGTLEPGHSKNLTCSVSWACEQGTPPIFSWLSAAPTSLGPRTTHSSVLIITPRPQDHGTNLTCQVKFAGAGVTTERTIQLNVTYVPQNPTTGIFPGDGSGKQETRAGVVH
T1 sequence (P20138 18-364): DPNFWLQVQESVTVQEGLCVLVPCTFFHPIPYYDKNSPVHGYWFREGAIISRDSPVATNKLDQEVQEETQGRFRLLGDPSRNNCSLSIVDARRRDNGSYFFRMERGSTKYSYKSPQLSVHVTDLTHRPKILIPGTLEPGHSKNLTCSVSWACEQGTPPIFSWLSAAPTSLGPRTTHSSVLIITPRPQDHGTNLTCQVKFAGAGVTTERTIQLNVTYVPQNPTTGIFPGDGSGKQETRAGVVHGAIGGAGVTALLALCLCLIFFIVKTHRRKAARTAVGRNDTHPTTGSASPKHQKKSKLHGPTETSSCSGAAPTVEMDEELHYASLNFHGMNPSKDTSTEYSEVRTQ
T3 sequence (chain, as listed by the source limits assumed): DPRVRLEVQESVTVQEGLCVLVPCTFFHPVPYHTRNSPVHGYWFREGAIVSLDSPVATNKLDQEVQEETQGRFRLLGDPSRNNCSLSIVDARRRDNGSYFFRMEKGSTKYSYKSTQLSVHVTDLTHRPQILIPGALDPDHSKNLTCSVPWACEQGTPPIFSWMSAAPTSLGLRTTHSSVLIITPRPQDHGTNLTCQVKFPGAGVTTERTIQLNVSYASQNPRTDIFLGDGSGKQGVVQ

Row | Binder | Fold increase in potency compared to 6C7H5 [1] [fold] | Receptor downregulation, (EC50) (pM) [1] [pM] | EC50 [2] [nM] | EC50 [3] [nM] | Relative maximal binding (cyno/human) [3] | Relative potency (human/cyno) [3] | Fold change in potency from IgG1 [4] [fold] | Maximal downregulation (% CD33 remaining) [4] [% CD33 remaining] | Receptor downregulation, (pM, EC50) [4] [pM]
1 | anti-CD33 antibody 6C7H38 (antibody, V domains shown, VH/VL only) VH: EVQLVESGGGLVQPGGSLRLSCAASGFTFSEYAMLWVRQAPGKGLEWVGEIRLKSNNYVTNYAASVKGRFTISRDDSKNSVYLQMNSLKTEDTGVYYCTRAGYYVPFTYWGQGTLVTVSS VL: QPMLTQSPSASASLGASVKLTCTLSSQHSTYTIEWYQQQPGKGPRYLMELKKEGSHSTGDGIPDRFSGSSSGAERYLTISSLQSEDEADYYCGVGLTIKEQFVYVFGGGTKLTVL | 1.6 | 27 | 0.21 | 4.87 | 0.36 | 0.04 | – | – | –
2 | anti-CD33 antibody 6C7H42 (antibody, V domains shown, VH/VL only) VH: EVQLVESGGGLVQPGGSLRLSCAASGFTFSEYDMLWVRQAPGKGLEWVGEIRLKSNNYVTNYAASVKGRFTISRDDTKNSVYLQMNSLKTEDTGVYYCTRAGYYVPFAYWGQGTLVTVSS VL: QPMLTQSPSASASLGASVKLTCTLSSQHSTYTIEWYQQQPGKGPRYLMELKKEGSHSTGDGIPDRFSGSSSGAERYLTISSLQSEDEADYYCGVGLTIKEQFVYVFGGGTKLTVL | 1.1 | 39.4 | 0.2 | – | 0.08 | – | – | – | –
3 | anti-CD33 antibody 6C7H43 (antibody, V domains shown, VH/VL only) VH: EVQLVESGGGLVQPGGSLRLSCAASGFTFSEYDMLWVRQAPGKGLEWVGEIRLKSNNYVTNYAASVKGRFTISRDDSKNSVYLQMNSLKTEDTGVYYCTRAGYYVPFAYWGQGTLVTVSS VL: QLMLTQSPSASASLGASVKLTCTLSSQHSTYTIEWYQQQPGKGPRYLMELKKEGSHSTGDGIPDRFSGSSSGAERYLTISSLQSEDEADYYCGVGHTIKEQFVYEFGGGTKLTVL | 0.9 | 49.8 | 0.17 | – | 0.11 | – | – | – | –
4 | anti-CD33 antibody 6C7H44 (antibody, V domains shown, VH/VL only) VH: EVQLVESGGGLVQPGGSLRLSCAASGFTFSEYDMLWVRQAPGKGLEWVGEIRLKSNNYVTNYAASVKGRFTISRDDSKNSVYLQMNSLKTEDTGVYYCTRAGYYVPFAYWGQGTLVTVSS VL: QPMLTQSPSASASLGASVKLTCTLSSQHSTYTIEWYQQQPGKGPRYLMELKKEGSHSTGDGIPDRFSGSSSGAERYLTISSLQSEDEADYYCGVGLTIKEQFVYVFGGGTKLTVL | 0.9 | 45.7 | 0.18 | – | 0.09 | – | – | – | –
5 | anti-CD33 antibody 6C7H45 (antibody, V domains shown, VH/VL only) VH: EVQLVESGGGLVQPGGSLRLSCAASGFTFSEYAMLWVRQAPGKGLEWVGEIRLKSNNYVTNYAASVKGRFTISRDDSKNSVYLQMNSLKTEDTGVYYCTRAGYYVPFAYWGQGTLVTVSS VL: QLMLTQSPSASASLGASVKLTCTLSSQHSTYTIEWYQQQPGKGPRYLMELKKEGSHSTGDGIPDRFSGSSSGAERYLTISSLQSEDEADYYCGVGHTIKEQFVYEFGGGTKLTVL | 1 | 44.5 | 0.15 | – | 0.31 | – | – | – | –
6 | anti-CD33 antibody 6C7H46 (antibody, V domains shown, VH/VL only) VH: EVQLVESGGGLVQPGGSLRLSCAASGFTFSEYAMLWVRQAPGKGLEWVGEIRLKSNNYVTNYAASVKGRFTISRDDSKNSVYLQMNSLKTEDTGVYYCTRAGYYVPFAYWGQGTLVTVSS VL: QPMLTQSPSASASLGASVKLTCTLSSQHSTYTIEWYQQQPGKGPRYLMELKKEGSHSTGDGIPDRFSGSSSGAERYLTISSLQSEDEADYYCGVGLTIKEQFVYVFGGGTKLTVL | 0.7 | 61.7 | 0.19 | 16.8 | 0.23 | 0.01 | – | – | –
7 | anti-CD33 antibody 6C7H47 (antibody, V domains shown, VH/VL only) VH: EVQLVESGGGLVQPGGSLRLSCAGSGFTFSNYEMNWVRQAPGKGLEWVAEIRLKSNNYVTNYAASVKGRFTISRDDSKNSVYLQMNSLKTEDTGVYYCTRAGYYVPFAYWGQGTLVTVSS VL: QLMLTQSPSASASLGASVKLTCTLSSQHSTYTIEWYQQQPGKGPRYLMELKKEGSHSTGDGIPDRFSGSSSGAERYLTISSLQSEDEADYYCGVGHTIKEQFVYEFGGGTKLTVL | 0.7 | 59 | 0.22 | 0.42 | 0.43 | 0.52 | – | – | –
8 | anti-CD33 antibody 6C7H48 (antibody, V domains shown, VH/VL only) VH: EVQLVESGGGLVQPGGSLRLSCAGSGFTFSNYEMNWVRQAPGKGLEWVAEIRLKSNNYVTNYAASVKGRFTISRDDSKNSVYLQMNSLKTEDTGVYYCTRAGYYVPFAYWGQGTLVTVSS VL: QPMLTQSPSASASLGASVKLTCTLSSQHSTYTIEWYQQQPGKGPRYLMELKKEGSHSTGDGIPDRFSGSSSGAERYLTISSLQSEDEADYYCGVGLTIKEQFVYVFGGGTKLTVL | 0.8 | 56.3 | 0.17 | 1.19 | 0.53 | 0.14 | – | – | –
9 | anti-CD33 antibody 6C7H50 (antibody, V domains shown, VH/VL only) VH: EVQLVESGGGLVQPGGSLRLSCAASGFTFSEYDMLWVRQAPGKGLEWVGEIRLKSNNYVTNYAASVKGRFTISRDDSKNSVYLQMNSLKTEDTGVYYCTRAGYYVPFAYWGQGTLVTVSS VL: QLMLTQSPSASASLGASVKLTCTLSSQHSTYTIEWYQQQPGKGPRYLMELKKEGSHSTGDGIPDRFSGSSSGAERYLTISSLQSEDEADYYCGVGHTIKEQFVYVFGGGTKLTVL | 0.7 | 57.8 | 0.22 | – | 0.21 | – | – | – | –
10 | anti-CD33 antibody 6C7H51 (antibody, V domains shown, VH/VL only) VH: EVQLVESGGGLVQPGGSLRLSCAASGFTFSEYAMLWVRQAPGKGLEWVGEIRLKSNNYVTNYAASVKGRFTISRDDSKNSVYLQMNSLKTEDTGVYYCTRAGYYVPFAYWGQGTLVTVSS VL: QPVLTQSPSASASLGASVKLTCTLSSQHSTYTIEWYQQQPEKGPRYLMELKKEGSHSTGDGIPDRFSGSSSGAERYLTISSLQSEDEADYYCGVGVTIKEQFVYVFGGGTKLTVL | 1 | 42.4 | 0.19 | – | 0.08 | – | – | – | –
11 | anti-CD33 antibody 6C7H52 (antibody, V domains shown, VH/VL only) VH: EVQLVESGGGLVQPGGSLRLSCAASGFTFSEYAMLWVRQAPGKGLEWVGEIRLKSNNYVTNYAASVKGRFTISRDDSKNSVYLQMNSLKTEDTGVYYCTRAGYYVPFAYWGQGTLVTVSS VL: QLMLTQSPSASASLGASVKLTCTLSSQHSTYTIEWYQQQPGKGPRYLMELKKEGSHSTGDGIPDRFSGSSSGAERYLTISSLQSEDEADYYCGVGHTIKEQFVYVFGGGTKLTVL | 0.9 | 47.7 | 0.23 | 1.7 | 0.47 | 0.14 | – | – | –
12 | anti-CD33 antibody 6C7H53 (antibody, V domains shown, VH/VL only) VH: EVQLVESGGGLVQPGGSLRLSCAGSGFTFSNYEMNWVRQAPGKGLEWVAEIRLKSNNYVTNYAASVKGRFTISRDDSKNSVYLQMNSLKTEDTGVYYCTRAGYYVPFAYWGQGTLVTVSS VL: QPVLTQSPSASASLGASVKLTCTLSSQHSTYTIEWYQQQPEKGPRYLMELKKEGSHSTGDGIPDRFSGSSSGAERYLTISSLQSEDEADYYCGVGVTIKEQFVYVFGGGTKLTVL | 1.2 | 35.4 | 0.18 | 25.6 | 0.39 | 0.01 | – | – | –
13 | 6C7H8 IgG1 LALAPS (antibody, V domains shown) VH: EVQLVESGGGLVQPGGSLRLSCAGSGFTFSNYCMNWVRQAPGKGLEWVAEIRLKSNNYVTNYAASVKGRFTISRDDSKNSVYLQMNSLKTEDTGVYYCTRAGYYVPFAYWGQGTLVTVSS VL: QLVLTQSPSASASLGASVKLTCTLSSQHSTYTIEWYQQQPEKGPRYLMELKKEGSHSTGDGIPDRFSGSSSGAERYLTISSLQSEDEADYYCGVGDTIKEQFVYVFGGGTKLTVL | – | – | – | – | – | – | 0.93 | 67.4 | 83.7
14 | 6C7H10 IgG2 (antibody) chain 1: EVQLVESGGGLVQPGGSLRLSCAASGFTFSEYAMNWVRQAPGKGLEWVGEIRLKSNNYVTNYAASVKGRFTISRDDSKNSVYLQMNSLKTEDTGVYYCTRAGYYVPFAYWGQGTLVTVSSASTKGPSVFPLAPCSRSTSESTAALGCLVKDYFPEPVTVSWNSGALTSGVHTFPAVLQSSGLYSLSSVVTVPSSNFGTQTYTCNVDHKPSNTKVDKTVERKCCVECPPCPAPPVAGPSVFLFPPKPKDTLMISRTPEVTCVVVDVSHEDPEVQFNWYVDGVEVHNAKTKPREEQFNSTFRVVSVLTVVHQDWLNGKEYKCKVSNKGLPAPIEKTISKTKGQPREPQVYTLPPSREEMTKNQVSLTCLVKGFYPSDIAVEWESNGQPENNYKTTPPMLDSDGSFFLYSKLTVDKSRWQQGNVFSCSVMHEALHNHYTQKSLSLSPGK chain 2: QLVLTQSPSASASLGASVKLTCTLSSQHSTYTIEWYQQQPEKGPRYLMELKKEGSHSTGDGIPDRFSGSSSGAERYLTISSLQSEDEADYYCGVGDTIKEQFVYVFGGGTKLTVL | – | – | – | – | – | – | 1.01 | 24.2 | 772
15 | 6C7H10 IgG1 SELF (antibody) chain 1: not shown chain 2: QLVLTQSPSASASLGASVKLTCTLSSQHSTYTIEWYQQQPEKGPRYLMELKKEGSHSTGDGIPDRFSGSSSGAERYLTISSLQSEDEADYYCGVGDTIKEQFVYVFGGGTKLTVL | – | – | – | – | – | – | 25.8 | 19.6 | 30.1
16 | 6C7H10 IgG1 LALAPS (antibody) chain 1: not shown chain 2: QLVLTQSPSASASLGASVKLTCTLSSQHSTYTIEWYQQQPEKGPRYLMELKKEGSHSTGDGIPDRFSGSSSGAERYLTISSLQSEDEADYYCGVGDTIKEQFVYVFGGGTKLTVL | – | – | – | – | – | – | 0.58 | 62.3 | 1350
